{
  "source": "paper PMC7388967",
  "key": {"[1]": {"molecular_target": "Collagen I Rat Protein, Tail (rat collagen type I) (rat) (UniProt P02454)", "sequence (P02454 152-1207, chain 1 of 2)": "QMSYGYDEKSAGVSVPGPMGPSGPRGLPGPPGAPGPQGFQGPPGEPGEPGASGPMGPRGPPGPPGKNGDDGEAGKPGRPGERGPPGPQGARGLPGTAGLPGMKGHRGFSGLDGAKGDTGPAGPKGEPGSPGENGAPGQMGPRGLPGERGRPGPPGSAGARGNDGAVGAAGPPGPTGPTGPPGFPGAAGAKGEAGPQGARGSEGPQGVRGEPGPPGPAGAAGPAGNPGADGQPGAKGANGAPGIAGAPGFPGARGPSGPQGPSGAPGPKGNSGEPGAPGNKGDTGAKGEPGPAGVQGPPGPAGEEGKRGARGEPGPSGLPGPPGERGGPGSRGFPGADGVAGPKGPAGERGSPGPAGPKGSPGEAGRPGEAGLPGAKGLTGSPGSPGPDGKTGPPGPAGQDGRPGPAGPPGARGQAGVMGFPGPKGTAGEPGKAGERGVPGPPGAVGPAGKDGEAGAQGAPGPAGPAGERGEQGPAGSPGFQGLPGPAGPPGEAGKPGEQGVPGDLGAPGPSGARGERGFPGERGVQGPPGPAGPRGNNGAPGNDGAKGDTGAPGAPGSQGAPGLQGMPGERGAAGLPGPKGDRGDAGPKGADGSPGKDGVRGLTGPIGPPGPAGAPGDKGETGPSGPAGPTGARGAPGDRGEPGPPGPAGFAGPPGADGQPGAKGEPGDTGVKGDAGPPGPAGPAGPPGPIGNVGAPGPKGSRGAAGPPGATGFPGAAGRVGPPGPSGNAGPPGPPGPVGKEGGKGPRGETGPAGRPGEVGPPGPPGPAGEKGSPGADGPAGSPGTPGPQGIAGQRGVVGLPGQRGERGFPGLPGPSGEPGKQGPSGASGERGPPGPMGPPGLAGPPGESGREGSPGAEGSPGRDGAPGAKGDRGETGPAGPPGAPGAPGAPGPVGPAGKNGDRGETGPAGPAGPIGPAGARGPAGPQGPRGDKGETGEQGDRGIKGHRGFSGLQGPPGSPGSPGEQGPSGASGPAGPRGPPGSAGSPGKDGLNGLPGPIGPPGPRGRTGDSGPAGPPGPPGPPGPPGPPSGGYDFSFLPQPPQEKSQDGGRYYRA", "sequence (P02466 86-1125, chain 2 of 2, further chain)": "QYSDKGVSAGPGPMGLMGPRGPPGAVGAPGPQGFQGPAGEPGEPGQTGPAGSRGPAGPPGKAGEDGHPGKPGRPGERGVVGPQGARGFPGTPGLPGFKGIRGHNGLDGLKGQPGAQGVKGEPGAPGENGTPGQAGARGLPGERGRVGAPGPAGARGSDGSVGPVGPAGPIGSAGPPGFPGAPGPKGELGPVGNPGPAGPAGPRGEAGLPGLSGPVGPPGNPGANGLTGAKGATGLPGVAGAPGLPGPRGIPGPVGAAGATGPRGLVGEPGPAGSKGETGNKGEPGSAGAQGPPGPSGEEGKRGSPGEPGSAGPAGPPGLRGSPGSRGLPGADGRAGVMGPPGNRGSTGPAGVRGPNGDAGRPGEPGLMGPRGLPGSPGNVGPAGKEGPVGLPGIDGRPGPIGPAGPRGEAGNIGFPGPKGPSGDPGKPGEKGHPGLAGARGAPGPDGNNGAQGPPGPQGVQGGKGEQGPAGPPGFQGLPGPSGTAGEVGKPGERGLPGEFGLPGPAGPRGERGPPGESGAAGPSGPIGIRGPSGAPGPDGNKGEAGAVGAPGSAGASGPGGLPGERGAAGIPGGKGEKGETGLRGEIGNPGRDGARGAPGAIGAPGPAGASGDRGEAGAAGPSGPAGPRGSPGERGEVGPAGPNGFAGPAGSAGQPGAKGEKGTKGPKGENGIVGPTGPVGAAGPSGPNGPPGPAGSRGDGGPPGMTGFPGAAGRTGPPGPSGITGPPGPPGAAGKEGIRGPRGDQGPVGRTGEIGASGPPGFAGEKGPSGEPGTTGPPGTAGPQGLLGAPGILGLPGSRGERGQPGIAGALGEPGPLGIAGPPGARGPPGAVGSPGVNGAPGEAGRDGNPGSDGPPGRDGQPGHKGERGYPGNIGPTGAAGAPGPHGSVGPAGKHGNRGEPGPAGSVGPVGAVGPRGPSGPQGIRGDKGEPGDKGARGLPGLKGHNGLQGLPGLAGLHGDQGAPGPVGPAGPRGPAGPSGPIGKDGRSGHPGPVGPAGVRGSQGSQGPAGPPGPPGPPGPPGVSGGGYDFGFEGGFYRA", "test": "whole-cell adhesion assay (fluorescence of sfGFP-expressing bacteria); commercial 96-well plates pre-coated with rat collagen type I (GIBCO); YadA induced with 0.2 µg/ml ATc, compared with the not-induced control"}, "[2]": {"molecular_target": "Collagen I Bovine Protein (bovine collagen type I) (bovine) (UniProt P02453)", "sequence (P02453 162-1217, chain 1 of 2)": "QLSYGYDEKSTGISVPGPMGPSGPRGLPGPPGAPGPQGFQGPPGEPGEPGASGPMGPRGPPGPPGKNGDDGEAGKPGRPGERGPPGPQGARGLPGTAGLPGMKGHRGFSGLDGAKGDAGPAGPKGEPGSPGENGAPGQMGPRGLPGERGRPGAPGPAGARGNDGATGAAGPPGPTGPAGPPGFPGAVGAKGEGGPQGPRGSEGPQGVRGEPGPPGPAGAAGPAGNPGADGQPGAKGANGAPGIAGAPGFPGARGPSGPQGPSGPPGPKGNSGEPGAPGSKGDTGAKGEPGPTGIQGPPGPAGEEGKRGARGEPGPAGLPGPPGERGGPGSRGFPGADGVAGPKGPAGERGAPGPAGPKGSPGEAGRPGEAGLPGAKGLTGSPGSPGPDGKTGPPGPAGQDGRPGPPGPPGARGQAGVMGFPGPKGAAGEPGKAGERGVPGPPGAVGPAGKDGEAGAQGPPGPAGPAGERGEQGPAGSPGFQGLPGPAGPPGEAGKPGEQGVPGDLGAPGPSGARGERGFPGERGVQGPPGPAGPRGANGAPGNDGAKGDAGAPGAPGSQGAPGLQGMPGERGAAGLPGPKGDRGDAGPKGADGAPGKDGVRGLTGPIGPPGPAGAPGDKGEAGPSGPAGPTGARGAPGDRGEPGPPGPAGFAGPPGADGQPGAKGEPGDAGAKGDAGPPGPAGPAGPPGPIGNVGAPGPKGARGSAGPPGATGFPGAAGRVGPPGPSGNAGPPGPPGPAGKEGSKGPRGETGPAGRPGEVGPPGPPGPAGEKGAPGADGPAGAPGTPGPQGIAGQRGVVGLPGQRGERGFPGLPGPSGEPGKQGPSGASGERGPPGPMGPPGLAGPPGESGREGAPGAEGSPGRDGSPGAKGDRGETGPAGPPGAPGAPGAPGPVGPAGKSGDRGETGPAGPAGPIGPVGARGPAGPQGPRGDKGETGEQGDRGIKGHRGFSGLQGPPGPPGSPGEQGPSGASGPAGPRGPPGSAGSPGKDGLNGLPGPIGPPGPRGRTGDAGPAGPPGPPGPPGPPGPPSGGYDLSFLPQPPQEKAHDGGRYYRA", "sequence (P02465 80-1117, chain 2 of 2, further chain)": "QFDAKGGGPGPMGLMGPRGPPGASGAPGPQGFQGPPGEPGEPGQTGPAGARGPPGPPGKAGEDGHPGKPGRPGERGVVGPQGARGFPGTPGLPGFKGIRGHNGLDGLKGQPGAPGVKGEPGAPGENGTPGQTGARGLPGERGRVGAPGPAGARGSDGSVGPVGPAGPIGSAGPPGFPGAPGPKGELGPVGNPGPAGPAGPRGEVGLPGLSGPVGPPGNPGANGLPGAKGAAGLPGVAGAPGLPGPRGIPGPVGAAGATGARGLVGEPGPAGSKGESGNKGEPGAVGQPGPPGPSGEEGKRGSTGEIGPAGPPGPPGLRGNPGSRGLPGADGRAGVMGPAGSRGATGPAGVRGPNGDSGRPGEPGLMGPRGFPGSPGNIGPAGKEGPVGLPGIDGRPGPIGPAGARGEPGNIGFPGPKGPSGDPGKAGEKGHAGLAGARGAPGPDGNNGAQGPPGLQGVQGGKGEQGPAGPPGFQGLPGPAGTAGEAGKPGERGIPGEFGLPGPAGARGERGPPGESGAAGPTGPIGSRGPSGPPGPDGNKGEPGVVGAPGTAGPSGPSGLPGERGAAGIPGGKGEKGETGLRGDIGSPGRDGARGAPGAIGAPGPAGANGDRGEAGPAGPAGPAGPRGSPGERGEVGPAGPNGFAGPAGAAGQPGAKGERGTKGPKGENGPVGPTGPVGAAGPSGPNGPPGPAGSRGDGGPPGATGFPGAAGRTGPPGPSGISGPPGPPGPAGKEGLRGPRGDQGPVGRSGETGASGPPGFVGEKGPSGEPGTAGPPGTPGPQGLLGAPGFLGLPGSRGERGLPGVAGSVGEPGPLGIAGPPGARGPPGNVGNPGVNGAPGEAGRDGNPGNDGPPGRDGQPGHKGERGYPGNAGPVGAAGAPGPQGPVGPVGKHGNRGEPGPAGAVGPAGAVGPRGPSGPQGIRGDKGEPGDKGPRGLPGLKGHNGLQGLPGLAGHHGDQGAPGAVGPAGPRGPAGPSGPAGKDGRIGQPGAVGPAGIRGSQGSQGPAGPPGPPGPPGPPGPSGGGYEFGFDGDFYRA", "test": "whole-cell adhesion assay (fluorescence of sfGFP-expressing bacteria); strain AS76; wells coated with 100 µg/ml bovine collagen type I for 30 min, with or without blocking with 50 mg/ml BSA in PBS for 30 min; YadA induced with 0.1 µg/ml ATc, compared with uninduced cells"}},
  "data": [
    {"substance": "Yersinia enterocolitica Adhesin A (YadA), wild type, on the surface of E. coli cells (from UniProt A1JUB7 26-422) (natural protein)", "values": [
      {"measurement": "fold difference of signal, induced against not-induced control", "setting": "[1]", "result": 2.5, "unit": "fold"},
      {"measurement": "fold change of signal, YadA-expressing against uninduced cells (collagen-coated, BSA-blocked wells)", "setting": "[2]", "result": 4.1, "unit": "fold"},
      {"measurement": "fold change of signal, YadA-expressing against uninduced cells (collagen-coated, not BSA-blocked wells)", "setting": "[2]", "result": 4.4, "unit": "fold"}
    ]}
  ]
}
